We go through 7 molecules from doi:10.1101/152850 (bioRxiv, 2017).

The data set “SEC” deals with the molecule itself. Kind of data set: SEC. A general note: Size exclusion chromatography separates by hydrodynamic size, large species first.
Data set [1] deals with T1, IFIT1 wild-type (human, UniProt P09914 1-478).
T1 sequence: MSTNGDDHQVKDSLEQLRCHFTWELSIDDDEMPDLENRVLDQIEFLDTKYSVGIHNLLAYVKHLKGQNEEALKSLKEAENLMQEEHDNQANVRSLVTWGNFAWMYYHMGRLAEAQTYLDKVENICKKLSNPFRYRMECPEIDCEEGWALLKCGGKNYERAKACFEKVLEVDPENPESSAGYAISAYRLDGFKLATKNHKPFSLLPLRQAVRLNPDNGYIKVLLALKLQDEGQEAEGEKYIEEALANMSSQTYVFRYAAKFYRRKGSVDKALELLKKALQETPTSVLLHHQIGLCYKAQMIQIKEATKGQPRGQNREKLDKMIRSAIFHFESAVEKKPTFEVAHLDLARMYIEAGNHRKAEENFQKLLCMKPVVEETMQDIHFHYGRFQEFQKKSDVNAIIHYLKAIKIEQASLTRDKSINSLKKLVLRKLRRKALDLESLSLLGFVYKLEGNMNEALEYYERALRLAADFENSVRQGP
Kind of data set: X-ray crystallography.

The data set “SEC-MALS” concerns the molecule itself. As to the kind of experiment: SEC-MALS.
Data set [2] has as its target T1, IFIT1 wild-type. As to the kind of experiment: limited proteolysis.
Data set [3] concerns the target T1, IFIT1 wild-type. As to the kind of experiment: X-ray crystallography. This is another data set of the same source.

The term stoichiometry N denotes a count of units in the complex or per binding partner.

B1: IFIT2 (natural protein, UniProt P09913 1-472, looked up)
chain: MSENNKNSLESSLRQLKCHFTWNLMEGENSLDDFEDKVFYRTEFQNREFKATMCNLLAYLKHLKGQNEAALECLRKAEELIQQEHADQAEIRSLVTWGNYAWVYYHMGRLSDVQIYVDKVKHVCEKFSSPYRIESPELDCEEGWTRLKCGGNQNERAKVCFEKALEKKPKNPEFTSGLAIASYRLDNWPPSQNAIDPLRQAIRLNPDNQYLKVLLALKLHKMREEGEEEGEGEKLVEEALEKAPGVTDVLRSAAKFYRRKDEPDKAIELLKKALEYIPNNAYLHCQIGCCYRAKVFQVMNLRENGMYGKRKLLELIGHAVAHLKKADEANDNLFRVCSILASLHALADQYEDAEYYFQKEFSKELTPVAKQLLHLRYGNFQLYQMKCEDKAIHHFIEGVKINQKSREKEKMKDKLQKIAKMRLSKNGADSEALHVLAFLQELNEKMQQADEDSERGLESGSLIPSASSWNGE
Take B1: the “stoichiometry N” value in the data set “SEC” is 2. For the molecule AAAA (ssRNA, 5' triphosphate) [PPP-oligoA (PPP-AAAA)], the binding result in the data set with IFIT1 wild-type [1] was “binds”.

B2: human IFIT1, wild-type, full-length (residues 1-478) (natural protein, UniProt P09914 1-478, looked up)
chain: MSTNGDDHQVKDSLEQLRCHFTWELSIDDDEMPDLENRVLDQIEFLDTKYSVGIHNLLAYVKHLKGQNEEALKSLKEAENLMQEEHDNQANVRSLVTWGNFAWMYYHMGRLAEAQTYLDKVENICKKLSNPFRYRMECPEIDCEEGWALLKCGGKNYERAKACFEKVLEVDPENPESSAGYAISAYRLDGFKLATKNHKPFSLLPLRQAVRLNPDNGYIKVLLALKLQDEGQEAEGEKYIEEALANMSSQTYVFRYAAKFYRRKGSVDKALELLKKALQETPTSVLLHHQIGLCYKAQMIQIKEATKGQPRGQNREKLDKMIRSAIFHFESAVEKKPTFEVAHLDLARMYIEAGNHRKAEENFQKLLCMKPVVEETMQDIHFHYGRFQEFQKKSDVNAIIHYLKAIKIEQASLTRDKSINSLKKLVLRKLRRKALDLESLSLLGFVYKLEGNMNEALEYYERALRLAADFENSVRQGP
Turning to B2, in the data set “SEC-MALS”, the “stoichiometry N” value worked out at 2.

B3: human IFIT1 K448E (natural protein, UniProt P09914 1-478, looked up)
chain: MSTNGDDHQVKDSLEQLRCHFTWELSIDDDEMPDLENRVLDQIEFLDTKYSVGIHNLLAYVKHLKGQNEEALKSLKEAENLMQEEHDNQANVRSLVTWGNFAWMYYHMGRLAEAQTYLDKVENICKKLSNPFRYRMECPEIDCEEGWALLKCGGKNYERAKACFEKVLEVDPENPESSAGYAISAYRLDGFKLATKNHKPFSLLPLRQAVRLNPDNGYIKVLLALKLQDEGQEAEGEKYIEEALANMSSQTYVFRYAAKFYRRKGSVDKALELLKKALQETPTSVLLHHQIGLCYKAQMIQIKEATKGQPRGQNREKLDKMIRSAIFHFESAVEKKPTFEVAHLDLARMYIEAGNHRKAEENFQKLLCMKPVVEETMQDIHFHYGRFQEFQKKSDVNAIIHYLKAIKIEQASLTRDKSINSLKKLVLRKLRRKALDLESLSLLGFVYELEGNMNEALEYYERALRLAADFENSVRQGP
As to B3, the binding result in “SEC” was “binds”.

Take AAAA (ssRNA, 5' Gppp cap (cap G not in strand)) [Gppp-oligoA (Gppp-AAAA)]: the binding result with IFIT1 wild-type [2] is recorded as “binds”. As to AAAA (ssRNA, 5' m7Gppp cap (cap G not in strand)) [m7Gppp-oligoA (m7Gppp-AAAA)], in the data set with IFIT1 wild-type [3], the binding result was “binds”.

B4: IFIT5-IFIT1 chimera (IFIT5^i1TPR9): human IFIT5 α1-α21 (residues 1-435) and human IFIT1 α22-α23 (TPR9, residues 437-478) (other, UniProt Q13325 1-435, looked up)
chain: MSEIRKDTLKAILLELECHFTWNLLKEDIDLFEVEDTIGQQLEFLTTKSRLALYNLLAYVKHLKGQNKDALECLEQAEEIIQQEHSDKEEVRSLVTWGNYAWVYYHMDQLEEAQKYTGKIGNVCKKLSSPSNYKLECPETDCEKGWALLKFGGKYYQKAKAAFEKALEVEPDNPEFNIGYAITVYRLDDSDREGSVKSFSLGPLRKAVTLNPDNSYIKVFLALKLQDVHAEAEGEKYIEEILDQISSQPYVLRYAAKFYRRKNSWNKALELLKKALEVTPTSSFLHHQMGLCYRAQMIQIKKATHNRPKGKDKLKVDELISSAIFHFKAAMERDSMFAFAYTDLANMYAEGGQYSNAEDIFRKALRLENITDDHKHQIHYHYGRFQEFHRKSENTAIHHYLEALKVKDRSPLRTKLTSALKKLSTKRLCHNALDVLESLSLLGFVYKLEGNMNEALEYYERALRLAADFENSVRQGP
As to B4, the “stoichiometry N” value in “SEC” was determined as 2.
